The target of assay [1] is fluorescently Ct-labeled six-residue peptide bearing Nt-Glu. Briefly: fluorescence polarisation.
Assay [2] has as its target fluorescently Ct-labeled six-residue peptide bearing Nt-Asp. The assay can be described thus: fluorescence polarisation. For orientation: Polarisation of emitted light reports the rotation of a fluorescent probe.

Broadly, the Kd is the concentration at which binding is half-saturated.

As to “klAte1, the Ate1 arginyl-tRNA-protein transferase (R-transferase) of Kluyveromyces lactis (enzyme)”, the Kd in assay [1] and in assay [2] was above 100 µM throughout.

The values above are taken from PMC9351520.
